Assay results from article PMC12466997, “Coming Clean and Avoiding Bubble Trouble–Using Detergents Wisely in the Purification of Membrane Proteins for Cryo-EM Studies” (Biomolecules, 2025).

B1: WzzB^ST (natural protein)
chain: MTVDSNTSSGRGNDPEQIDLIELLLQLWRGKMTIIVAVIIAILLAVGYLMIAKEKWTSTAIITQPDAAQVATYTNALNVLYGGNAPKISEVQANFISRFSSAFSALSEVLDNQKEREKLTIEQSVKGQALPLSVSYVSTTAEGAQRRLAEYIQQVDEEVAKELEVDLKDNITLQTKTLQESLETQEVVAQEQKDLRIKQIEEALRYADEAKITQPQIQQTQDVTQDTMFLLGSDALKSMIQNEATRPLVFSPAYYQTKQTLLDIKNLKVTADTVHVYRYVMKPTLPVRRDSPKTAITLVLAVLLGGMIGAGIVLGRNALRSYKPKAL
notes: WzzB^ST, bacterial inner membrane polysaccharide copolymerase (O-antigen chain length regulator); the AlphaFold2 model AF-Q04866-F1 of the full-length protein was fitted into the map; periplasmic domain residues 55-289, TM residues 20-54 and 289-319; source: extraction and purification as previously described [65]; purified, in 20 mM Tris pH 7.5, 150 mM NaCl, 0.025% DDM; copies: 12
B2: Methanocaldococcus jannaschii CorA (natural protein, UniProt Q58439 1-317, looked up)
chain: MITVIAIAKDGSIVEPKLDEISFEDYRLIWIDCYDPKDEELYKLSKKIGISVSDLQIGLDEQEIPRVEEDEDFYLIIYKAPLFEEDITTTSLGIYIKNNLLLTIHSDKIKAIGRLHKLISTKKPRIVFERGIGFLLYHILNEITRSYSRILMNLEDELEELEDKLLAGYDREVMEKILGLRKTLVYFHKSLIANRDVLVLLKRKYLPITTKEDRENFEDLYYDTLQLIDMSATYREVLTSMMDITLSLENIKMNQIMKILTMVTTIFAVPMWITGIYGMNFSYLPLANNPQGFWLVMALMVVIIMIFVYIFRRSGWI
notes: CorA magnesium channel (divalent metal ion transporter) of Methanocaldococcus jannaschii, E. coli codon-optimised, in pET15b; The HA tag is said to precede MjCorA; the His-tag was removed by thrombin; also called MjCorA; McCorA

Legend:
[1] = molecular target: the molecule itself; assay: cryo-EM 2D class averages; WzzB^ST in DDM; 2D classes and an unmasked 3D reconstruction; smaller oligomer and end-to-end pseudo-D-symmetrical pairs of complexes
[2] = molecular target: the molecule itself; assay: cryo-EM structure; WzzB^ST at 10 mg/mL in 20 mM Tris pH 7.5, 150 mM NaCl, 0.025% DDM; single-particle analysis in RELION 5, ~4.2 Å, C6 ring of dimers; AlphaFold2 model fitted and refined
[3] = molecular target: the molecule itself; assay: cryo-EM structure; MjCorA at 2 mg/mL in 50 mM Tris/HCl pH 8.0, 200 mM NaCl, DDM; initial 3D classification of ~550,000 particles, binned x4, resolution limited to ~6 Å

Row | Protein | stoichiometry N [1] | stoichiometry N [2] | stoichiometry N [3]
1 | B1 | ~4 | 12 | –
2 | B2 | – | – | 5
